Source: patent US12534748B2, “Engineered beta-subunit of tryptophan synthase for production of non-canonical amino acids” (California Institute of Technology, priority 2015, dated 2026)
Positions count from the first letter of the chain named. Names and notes keep the numbering of the source.

Key:
[1] = Table 1, published values; cited from earlier work
[2] = Substrate selectivity: relative rate of NCAA production with L-serine and indole analogs (UHPLC-MS); format: biochemical
Experimental: engineered TrpB enzymes. (A) Indole analogs that have been reported to react with StTrpS were tested for reactivity with the PfTrpB, PfTrpS, and PfTrpB^0B2 enzymes. The nucleophilic atom is indicated with a gray circle. (B) Relative activities of enzyme complex PfTrpS (black) and PfTrpB^0B2 (gray) compared with PfTrpB. Reactions performed in duplicate with 20 mM of each substrate and varying enzyme concentrations to ensure incomplete conversion after 1 h. Products were later confirmed in scaled-up reactions using PfTrpB^0B2.
Substrate Selectivity. The relative rate of NCAA production was measured using 20 mM L-serine and 20 mM indole analog (FIG. 4A) in 200 mM potassium phosphate (pH 8.0) with 5% (vol/vol) DMSO. Reactions were incubated at 75° C. for 1 h, quenched, and the relative rate of production formation was measured by comparing the ratio of the product peaks measured via ultra HPLC-MS (UHPLC-MS) Agilent 1290 with 6140 MS detector at 280 nm and then normalizing for the enzyme concentration.

[3] = Kinetics of tryptophan formation monitored at 290 nm (continuous assay for Trp production); format: biochemical
Experimental: Kinetics and UV-Vis Spectroscopy. Data were collected between 550 and 250 nm on a UV1800 Shimadzu spectrophotometer (Shimadzu) using 0.25-20 μM of enzyme in 200 mM potassium phosphate (pH 8.0) in a quartz cuvette. Samples were incubated at 75° C. for >3 min to ensure a stable temperature was reached. PfTrpB activity (kcat) was measured by monitoring tryptophan formation at 290 nm using Δe290=1.89 mM^−1·cm^−1.
Purified protein concentrations were determined via the Bradford assay (Bio-Rad). The concentration of PfTrpB^2B9 in heat treated lysates was determined by specific activity. Tryptophan formation was monitored at 75° C. over 1 min at 290 nm using Δε290=1.89 mM^−1 cm^−1·^2 The assay buffer contained 200 mM potassium phosphate pH 8, and 5 μM PLP. Using purified PfTrpB^2B9, we recorded an activity of 0.9 s^−1 with 400 μM Ind and 20 mM Ser. Using this parameter, 375 mg L^−1 of PfTrpB^2B9 active catalyst were prepared as a heat-treated lysate.

[4] = Total turnovers of β-MeTrp formation from L-threonine and indole; format: biochemical; settings: for Turnovers: 1 μM purified enzyme, 20 mM each L-threonine and indole, 24 h at 75° C.; for turnovers (TTN) of β-MeTrp production: purified enzyme, 24 hours
Experimental: Total Turnover Number (TTN) determination. Measurements were made using HPLC and LC-MS instruments. The amount of Trp formed was measured at 280 nm using a standard curve with trichlorobenzene as internal standard. […] This same technique was used to determine the TTN of the PfTrpB^2B9 reaction with different nucleophiles. […] […] Before addition of enzyme, all reagents were transferred into a Coy anaerobic chamber with <1 ppm O2 to rapidly exchange the atmosphere in the headspace of the vials to 95/5% N2/H2, which limits competing non-catalytic oxidation of indoles. Enzyme was added in the anaerobic environment with varied catalyst loading to ensure a robust product signal in subsequent analysis. Reaction vessels were capped before being removed from the anaerobic chamber and incubated in a 75° C. water bath for 24 hours. Reactions were quenched the next day by addition of 1 volume (150 μL) of 100% ACN, mixing, and allowing to rest at room temperature for 10 min. Quenched solutions were then diluted 5-fold with 40% ACN in water and analyzed via LC-MS.
To identify the best parent enzyme for optimization, we first measured production of β-MeTrp using purified enzymes from each generation in the evolution if PfTrpB^0B2.

PfTrpA [5] = target: T1, PfTrpA (Pyrococcus furiosus, UniProt Q8U094); format: biochemical; settings: percent of its own activity
T1 construct: made in house; host or cells: E. coli BL21 E. cloni EXPRESS
T1 sequence (Q8U094 whole entry, looked up): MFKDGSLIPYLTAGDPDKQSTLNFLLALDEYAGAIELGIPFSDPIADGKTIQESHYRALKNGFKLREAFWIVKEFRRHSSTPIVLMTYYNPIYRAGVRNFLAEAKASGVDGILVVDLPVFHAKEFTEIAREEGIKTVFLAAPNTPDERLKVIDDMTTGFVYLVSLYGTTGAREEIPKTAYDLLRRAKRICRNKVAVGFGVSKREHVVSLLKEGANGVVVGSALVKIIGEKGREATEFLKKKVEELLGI

PfTrpA [6] = format: biochemical, Pyrococcus furiosus
[7] = Thermostability T50 (temperature of half-maximal activity after incubation for 1 h); format: physicochemical; settings: for T50: temperature of half-maximal activity after incubation for 1 h
PfTrpA [8] = target: T2, PfTrpA (Pyrococcus furiosus, UniProt Q8U094); format: biochemical; settings: Table 1, values for PfTrpB reported here
T2 construct: made in house; host or cells: E. coli BL21 E. cloni EXPRESS
T2 sequence (Q8U094 1-248): T1 sequence (Q8U094 whole entry, looked up)
T2 sequence (Q8U093 1-388 partner): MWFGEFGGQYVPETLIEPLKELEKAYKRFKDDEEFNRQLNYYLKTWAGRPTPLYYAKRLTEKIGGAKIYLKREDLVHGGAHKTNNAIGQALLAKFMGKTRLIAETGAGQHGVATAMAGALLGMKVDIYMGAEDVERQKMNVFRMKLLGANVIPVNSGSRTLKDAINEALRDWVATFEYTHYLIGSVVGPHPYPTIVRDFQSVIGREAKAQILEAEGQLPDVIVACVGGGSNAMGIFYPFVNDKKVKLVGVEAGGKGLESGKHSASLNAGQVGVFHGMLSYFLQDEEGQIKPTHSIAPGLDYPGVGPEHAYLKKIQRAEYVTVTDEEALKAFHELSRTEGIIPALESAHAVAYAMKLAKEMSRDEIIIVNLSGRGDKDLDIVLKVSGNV

[9] = Rescreen of library hits for β-MeTrp formation (heat-treated lysate, HPLC); format: biochemical; settings: random mutagenesis library, parent PfTrpB^4D11, 60 min reaction at 75° C.
Experimental: High-throughput screening. For high-throughput expression, BL21 E. cloni Express cells carrying PfTrpB^4D11 and variant plasmids were grown in 96-well deep well plates in 300 μL TBamp at 37° C. and 80% humidity with shaking at 250 rpm overnight. TBamp expression cultures (630 μL) were inoculated with 20 μL of the overnight cultures and continued to grow at 37° C. and 80% humidity with shaking at 250 rpm for 3 h. Expression was induced with the addition of ITPG to a final concentration of 1 mM to pre-chilled (20 min on ice-water bath) cultures. The expression continued for another 20 h at 20° C. with shaking at 250 rpm. Cells were then centrifuged at 4000 g for 10 min and frozen at −20° C. over night. […] The reactions were then arrested by incubation in an ice-water bath, and the amount of β-MeTrp formed was recorded at 290 nm with a plate reader (Tecan Infinite M200).
Cultures of each hit containing missense mutations were grown in triplicate on 5 mL scale and expression and lysis proceeded in the same manner as described in the Cloning, Expression and Purification section above. Reactions using 10 μM protein as heat-treated lysate (determined by Bradford assay) and 20 mM each substrate were run for 1 h at 75° C. and quenched by dilution to 50% ACN.

B1: TmTrpB^WT: wild-type TrpB from Thermotoga maritima, SEQ ID NO:6 (protein, listed as Thermotoga maritima)
chain: MKGYFGPYGGQYVPEILMPALEELEAAYEEIMKDESFWKEFNDLLRDYAGRPTPLYFARRLSEKYGARIYLKREDLLHTGAHKINNAIGQVLLAKKMGKTRIIAETGAGQHGVATATAAALFGMECVIYMGEEDTIRQKPNVERMKLLGAKVVPVKSGSRTLKDAINEALRDWITNLQTTYYVIGSVVGPHPYPIIVRNFQKVIGEETKKQILEKEGRLPDYIVACVGGGSNAAGIFYPFIDSGVKLIGVEAGGEGLETGKHAASLLKGKIGYLHGSKTFVLQDDWGQVQVTHSVSAGLDYSGVGPEHAYWRETGKVLYDAVTDEEALDAFIELSRLEGIIPALESSHALAYLKKINIKGKVVVVNLSGRGDKDLESVLNHPYVRERIRLEHHHHHH
kcat change with TrpA [1]: 2.4

B2: PfTrpB^0B2: PfTrpB with mutations P12L, E17G, I68V, F274S, T292S, T321A (protein)
chain: MWFGEFGGQYVLETLIGPLKELEKAYKRFKDDEEFNRQLNYYLKTWAGRPTPLYYAKRLTEKIGGAKVYLKREDLVHGGAHKTNNAIGQALLAKFMGKTRLIAETGAGQHGVATAMAGALLGMKVDIYMGAEDVERQKMNVFRMKLLGANVIPVNSGSRTLKDAINEALRDWVATFEYTHYLIGSVVGPHPYPTIVRDFQSVIGREAKAQILEAEGQLPDVIVACVGGGSNAMGIFYPFVNDKKVKLVGVEAGGKGLESGKHSASLNAGQVGVSHGMLSYFLQDEEGQIKPSHSIAPGLDYPGVGPEHAYLKKIQRAEYVAVTDEEALKAFHELSRTEGIIPALESAHAVAYAMKLAKEMSRDEIIIVNLSGRGDKDLDIVLKVSGNVLEHHHHHH
modifications: left off: small tags and cut ends
notes: PfTrpB with mutations P12L, E17G, I68V, F274S, T292S, T321A
activity relative to PfTrpB on the substrate panel ([2]; all nucleophiles tested): substantial increase in activity
rate relative to PfTrpS ([2]; indazole (5)): three
rate relative to PfTrpS ([2]; indoline (6)): approximately six
kcat higher than PfTrpS [3]: threefold
Turnovers [4]: 180
activity when PfTrpA was added (PfTrpA [5]): 4%
kcat change with TrpA (PfTrpA [6]): 0.04
T50 [7]: 87 °C

B3: PfTrpB: wild-type β-subunit of tryptophan synthase from Pyrococcus furiosus, SEQ ID NO:2 (protein, listed as Pyrococcus furiosus)
chain: B2 chain with L12P, G17E, V68I, S274F, S292T, A321T
Turnovers [4]: 66
turnovers (TTN) of β-MeTrp production [4]: 66
kcat change with TrpA (PfTrpA [8]): 3.2
kcat change with TrpA (PfTrpA [6]): 3.2
Thermal stability indicators: T50 ([7]; Table 1): 94.7 ± 1.2
T50 [7]: 95 °C

B4: PfTrpB^2G9: PfTrpB with mutation T292S (protein)
chain: B2 chain with L12P, G17E, V68I, S274F, A321T
modifications: left off: small tags and cut ends
notes: PfTrpB with mutation T292S
enhancement of β-MeTrp activity relative to wild-type PfTrpB [4]: approximately 6 fold
Turnovers [4]: 420
kcat change with TrpA (PfTrpA [6]): 0.34
T50 [7]: 95 °C

B5: PfTrpB^4D11: PfTrpB with mutations E17G, I68V, F274S, T292S, T321A (protein)
chain: B2 chain with L12P
modifications: left off: small tags and cut ends
notes: PfTrpB with mutations E17G, I68V, F274S, T292S, T321A
Fold Improvement (increase in β-MeTrp formation relative to parent) [9]: 1.0 (parent)
Turnovers [4]: 660
turnovers (TTN) of β-MeTrp production [4]: ~420
kcat change with TrpA (PfTrpA [6]): 0.3
T50 [7]: 84 °C
